The target in one test is HLA-B*08:01. Kind of test: IEDB peptide-MHC binding, purified MHC/competitive/radioactivity; filed as Kd, often an IC50 or EC50 that approximates it; ≥ and ≤ were set here for values at or beyond the usual limits of such assays.
The target in a further test is HLA-A*23:01. Described as above.
For a further test, the target named is HLA-A*24:02. The description is as above.
A further test deals with HLA-A*29:02. The test is described as above.
The target in the next test is HLA-A*02:01. The test can be described thus: IEDB peptide-MHC binding, purified MHC/competitive/fluorescence; ≥ and ≤ were set here for values at or beyond the usual limits of such assays.
The next test concerns the target HLA-B*44:02. The test can be described thus: IEDB peptide-MHC binding, purified MHC/competitive/radioactivity; filed as Kd, often an IC50 or EC50 that approximates it; ≥ and ≤ were set here for values at or beyond the usual limits of such assays.
The target in a further test is HLA-B*44:03. Described as above.
The target in another test is HLA-A*02:03. Described as above. To be noted: source organism: Dengue virus 4 Philippines/H241/1956.
The target of test [1] is HLA-B*40:01. Kind of test: IEDB peptide-MHC binding, purified MHC/direct/fluorescence; filed as Kd, often an IC50 or EC50 that approximates it; ≥ and ≤ were set here for values at or beyond the usual limits of such assays. The note with it: source organism: Mycobacterium tuberculosis variant bovis.
Test [2] has as its target HLA-B*40:01. Kind of test: IEDB peptide-MHC binding, purified MHC/competitive/radioactivity; filed as Kd, often an IC50 or EC50 that approximates it; ≥ and ≤ were set here for values at or beyond the usual limits of such assays.
The next test has as its target HLA-A*03:01. Kind of test: IEDB peptide-MHC binding, purified MHC/direct/fluorescence; filed as Kd, often an IC50 or EC50 that approximates it; ≥ and ≤ were set here for values at or beyond the usual limits of such assays. The note with it: source organism: Pseudomonas aeruginosa UCBPP-PA14.
Another test concerns the target HLA-A*31:01. The description is as above. To be noted: source organism: Pseudomonas aeruginosa UCBPP-PA14.
The mark [3] stands for this setting: source organism: Dengue virus 2 Jamaica/1409/1983.
The mark [4] stands for this setting: source organism: Mammarenavirus brazilense.
[5] abbreviates: source organism: Vaccinia virus WR.
Setting [6] is: source organism: Dengue virus 1 Brazil/97-11/1997.
Setting [7] is: source organism: Mammarenavirus juninense.
The mark [8] stands for this setting: source organism: Zaire ebolavirus.
Where [9] appears, read: source organism: Dengue virus 4 Philippines/H241/1956.
Where [10] appears, read: source organism: Dengue virus 3 Martinique/1243/1999.
Setting [11] is: source organism: Vaccinia virus.
Setting [12] is: source organism: Dengue virus 3 Singapore/8120/1995.

Where only a bound is given, the exact number is not on record here.

The term Kd denotes the constant that tells how readily two partners part at equilibrium. Turning to ILNRRRRTA, in the test with HLA-B*08:01 (setting [3]), the Kd stood at 147 nM.
Consider LFQLIFFLTL, for which the Kd with HLA-A*23:01 (setting [4]) was 9190 nM; with HLA-A*24:02 (setting [4]), no less than 53900 nM; in the test with HLA-A*29:02 (setting [4]), 673 nM.
VNKFKFGAA: the Kd with HLA-B*08:01 (setting [5]) was 158 nM.
Turning to VGRQEKGKSL, in the test with HLA-B*08:01 (setting [3]), the Kd stood at 3150 nM.
The term IC50 denotes the concentration that inhibits the measured activity by half. A higher IC50 goes with a need for much substance. VILSLPRIA came in with an IC50 with HLA-A*02:01 (source organism: Variola virus) of 1390 nM.
For the sequence SQILLMRTTW, the Kd in the test with HLA-B*44:02 (setting [6]) is 359 nM; in the test with HLA-B*44:03 (setting [6]) it was 327 nM.
Turning to DWVVERVRWL, the values for the Kd in the test with HLA-A*23:01 (setting [7]), with HLA-A*24:02 (setting [7]) and with HLA-A*29:02 (setting [7]) were no less than 51900 nM, no less than 48700 nM and no less than 71400 nM, respectively.
On to IYRILQRGLL, for which the Kd in the test with HLA-B*08:01 (setting [6]) turned out to be 2570 nM.
In the case of TTQDEGAAI, the IC50 in the test with HLA-A*02:01 (setting [8]) is no less than 220000 nM.
For WLSYKVASA, the figures for the Kd with HLA-A*02:03 and with HLA-B*08:01 (setting [9]) were 12.3 nM and 7.42 nM, respectively.
As for LKDGPERVIL, the Kd in the test with HLA-B*08:01 (setting [6]) came to 2540 nM.
For SLEFIRRSL, in the test with HLA-B*08:01 (setting [5]), the equilibrium dissociation constant (Kd) stood at 1230 nM.
EYQKTKLNDW: the results for the Kd with HLA-A*23:01 (setting [10]) and with HLA-A*24:02 (setting [10]) were 10800 nM and 10300 nM, respectively.
In the case of GEPDARYEI, in the test with HLA-B*40:01 [1], the dissociation constant Kd amounted to 70.2 nM.
ITQKGIIFIL: the Kd in the test with HLA-B*08:01 (setting [6]) was found to be 577 nM.
Consider SELPETLETL, for which, in the test with HLA-B*40:01 [2] (setting [3]), the Kd was found to be 7.2 nM.
With SMAMRCVGI, the equilibrium dissociation constant (Kd) with HLA-B*08:01 (setting [6]) is 5.95 nM.
GWHDWQQVPF: the Kd was determined as 414 nM in the test with HLA-A*23:01 (setting [10]) and 118 nM with HLA-A*24:02 (setting [10]).
As to LGLITNTIA, the IC50 with HLA-A*02:01 (setting [8]) amounted to 35300 nM.
Regarding NAGQFLSFA, the IC50 with HLA-A*02:01 (setting [8]) is no less than 121000 nM.
Consider NLSPETLVG, for which, in the test with HLA-A*02:01 (setting [11]), the IC50 is no less than 170000 nM.
With REAVEDSRFW, the Kd in the test with HLA-B*44:02 (setting [3]) was 78.7 nM; in the test with HLA-B*44:03 (setting [3]), 127 nM.
The sequence QIPSSSPTT registered an IC50 with HLA-A*02:01 (source organism: Sudan ebolavirus) of 42800 nM.
On to NEAIMAVGM, for which the results for the Kd with HLA-B*44:02 (setting [3]) and with HLA-B*44:03 (setting [3]) were 84.5 nM and 224 nM, respectively.
On to VEDYGFGMF, for which the dissociation constant (Kd) in the test with HLA-B*40:01 [2] (setting [9]) was found to be 965 nM.
LIAIAVASGL: the Kd with HLA-B*08:01 (setting [9]) was found to be 11700 nM.
As to TQSRPIQNV, the IC50 in the test with HLA-A*02:01 (setting [8]) was determined as 14600 nM.
As for CPRRYLHRL, the Kd in the test with HLA-B*08:01 (setting [5]) stood at 2.66 nM.
Turning to WIMKIGIGVL, the Kd with HLA-B*08:01 (setting [12]) amounted to 287 nM.
With AEPDGPTPEL, in the test with HLA-B*40:01 [2] (setting [10]), the Kd was determined as 10.7 nM.
Consider IMDLEKRHVL, for which the Kd in the test with HLA-B*08:01 (setting [3]) is 42.1 nM.
VDLHPASAW: the Kd with HLA-B*44:02 (setting [6]) turned out to be 80.2 nM.
On to LETRAETWM, for which, in the test with HLA-B*40:01 [2] (setting [9]), the Kd was determined as 261 nM.
With SKRMRVDII, in the test with HLA-B*08:01 (setting [5]), the dissociation constant (Kd) worked out at 8230 nM.
With EEHSSTWHY, the Kd was 17.6 nM with HLA-B*44:02 (setting [12]) and 41 nM with HLA-B*44:03 (setting [12]).
The sequence VLNGAELSN came in with an IC50 in the test with HLA-A*02:01 (setting [11]) of no less than 114000 nM.
For the sequence EEEMFKKRNL, the results for the Kd with HLA-B*40:01 [2] (setting [10]), with HLA-B*44:02 (setting [10]) and with HLA-B*44:03 (setting [10]) were no less than 64300 nM, 90 nM and 815 nM, respectively.
For AETQNSSFII, the Kd with HLA-B*40:01 [2] (setting [10]) worked out at 23.1 nM; with HLA-B*44:02 (setting [10]), 63.8 nM; in the test with HLA-B*44:03 (setting [10]), 34.7 nM.
On to MVTGGIRRR, for which the Kd in the test with HLA-A*03:01 is no less than 20000 nM; with HLA-A*31:01 it was 251 nM.
As for GETAWDFGSV, the Kd with HLA-B*40:01 [2] (setting [9]) was 388 nM.
With SLEKAAEVSW, in the test with HLA-B*44:02 (setting [6]), the Kd turned out to be 174 nM.
For TLAGVNVGE, the concentration for half-maximal inhibition (IC50) with HLA-A*02:01 (setting [8]) is no less than 211000 nM.
HVQRIETWIL: in the test with HLA-B*08:01 (setting [3]), the Kd turned out to be 1730 nM.
For the sequence ENMLRSMPV, the dissociation constant (Kd) with HLA-B*08:01 (setting [5]) amounted to 0.213 nM.

The record behind these values is the Immune Epitope Database (IEDB).
